# Molecular target: human thrombopoietin receptor (human c-Mpl) (human) (UniProt P40238)
# Assay: cell-based or functional assay
substance,measurement,value
PEG-rHuMGDF (Pegylated Recombinant Human Megakaryocyte Growth and Development Factor) (ligand),UT7/TPO (Max),100%

# From patent WO2009041734A1
